In paper PMC8661717 (Protein Science : A Publication of the Protein Society, 2021):

T1: Pol α catalytic subunit (334-1462), as subunit of the truncated human primosome (human, UniProt P09884 334-1462)
T1 construct: also called DNA polymerase α; catalytic subunit of Pol α
T1 sequence (looked up): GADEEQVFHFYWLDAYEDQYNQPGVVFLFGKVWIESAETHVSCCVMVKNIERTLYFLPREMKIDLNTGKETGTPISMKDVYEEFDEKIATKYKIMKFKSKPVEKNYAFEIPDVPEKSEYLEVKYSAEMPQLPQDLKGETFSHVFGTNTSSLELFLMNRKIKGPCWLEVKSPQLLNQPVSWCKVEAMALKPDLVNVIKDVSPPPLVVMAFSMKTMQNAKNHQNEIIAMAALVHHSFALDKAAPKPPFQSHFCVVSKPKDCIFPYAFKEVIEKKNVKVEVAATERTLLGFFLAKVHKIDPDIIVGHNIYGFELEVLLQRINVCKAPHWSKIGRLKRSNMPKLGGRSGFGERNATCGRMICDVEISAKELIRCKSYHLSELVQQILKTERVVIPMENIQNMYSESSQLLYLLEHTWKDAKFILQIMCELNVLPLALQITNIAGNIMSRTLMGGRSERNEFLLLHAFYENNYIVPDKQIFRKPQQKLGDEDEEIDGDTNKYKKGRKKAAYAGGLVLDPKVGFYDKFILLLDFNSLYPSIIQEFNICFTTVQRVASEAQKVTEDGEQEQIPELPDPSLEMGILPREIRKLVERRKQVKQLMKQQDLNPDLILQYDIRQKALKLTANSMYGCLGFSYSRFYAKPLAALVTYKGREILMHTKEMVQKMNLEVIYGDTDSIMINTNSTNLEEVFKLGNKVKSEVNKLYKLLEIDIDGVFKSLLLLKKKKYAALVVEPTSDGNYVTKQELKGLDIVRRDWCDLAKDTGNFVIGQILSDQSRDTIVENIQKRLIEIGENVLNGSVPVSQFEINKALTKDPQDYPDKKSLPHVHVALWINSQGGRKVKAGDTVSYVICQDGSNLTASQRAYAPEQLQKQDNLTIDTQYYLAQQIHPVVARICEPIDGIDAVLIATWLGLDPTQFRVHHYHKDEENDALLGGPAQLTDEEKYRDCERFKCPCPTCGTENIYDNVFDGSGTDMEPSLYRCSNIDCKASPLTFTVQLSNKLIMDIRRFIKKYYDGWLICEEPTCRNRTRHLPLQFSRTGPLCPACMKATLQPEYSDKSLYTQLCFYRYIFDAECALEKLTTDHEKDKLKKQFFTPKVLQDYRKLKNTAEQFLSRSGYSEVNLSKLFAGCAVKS

B1: SARS-CoV nsp1 (13-127), His6-MBP tag cleaved (domain or fragment)
chain: HVQLSLPVLQVRDVLVRGFGDSVEEALSEAREHLKNGTCGLVELEKGVLPQLEQPYVFIKRSDALSTNHGHKVVELVAEMDGIQYGRSGITLGVLVPHVGETPIAYRNVLLRKNG
B2: His6-MBP-tagged SARS-CoV nsp1 middle domain (13-127) (domain or fragment)
chain: B1 chain
B3: His6-MBP-tagged SARS-CoV nonstructural protein 1 (nsp1), full length (natural protein)
chain: MESLVLGVNEKTHVQLSLPVLQVRDVLVRGFGDSVEEALSEAREHLKNGTCGLVELEKGVLPQLEQPYVFIKRSDALSTNHGHKVVELVAEMDGIQYGRSGITLGVLVPHVGETPIAYRNVLLRKNGNKGAGGHSYGIDLKSYDLGDELGTDPIEDYEQNWNTKHGSGALRELTRELNGG
B4: His6-MBP-tagged SARS-CoV-2 nsp1 middle domain (13-127) (domain or fragment)
chain: HVQLSLPVLQVRDVLVRGFGDSVEEVLSEARQHLKDGTCGLVEVEKGVLPQLEQPYVFIKRSDARTAPHGHVMVELVAELEGIQYGRSGETLGVLVPHVGEIPVAYRKVLLRKNG

What was measured:
Conditions in all cases: both partners purified
[1] = target: T1, Pol α catalytic subunit (334-1462), as …; experiment: cryo-EM structure
[2] = target: T2, Truncated human primosome (Pol α 334-1462; B subunit 149-598; PriS 1-420; PriL 1-509) (human, UniProt P09884 334-1462; Q14181 149-598; P49642 1-420; P49643 1-509); experiment: cryo-EM structure
T2 construct: also called truncated primosome; Pol α–primase

[3] = target: T2, Truncated human primosome (Pol α …); experiment: pull-down
[4] = target: T3, Full-length human primosome (DNA polymerase α–primase complex) (human, UniProt P09884 1-1462; Q14181 1-598; P49642 1-420; P49643 1-509); experiment: pull-down
T3 construct: also called Pol α–primase; full-length primosome
T3 sequence (Q14181 whole entry, chain 2 of 3): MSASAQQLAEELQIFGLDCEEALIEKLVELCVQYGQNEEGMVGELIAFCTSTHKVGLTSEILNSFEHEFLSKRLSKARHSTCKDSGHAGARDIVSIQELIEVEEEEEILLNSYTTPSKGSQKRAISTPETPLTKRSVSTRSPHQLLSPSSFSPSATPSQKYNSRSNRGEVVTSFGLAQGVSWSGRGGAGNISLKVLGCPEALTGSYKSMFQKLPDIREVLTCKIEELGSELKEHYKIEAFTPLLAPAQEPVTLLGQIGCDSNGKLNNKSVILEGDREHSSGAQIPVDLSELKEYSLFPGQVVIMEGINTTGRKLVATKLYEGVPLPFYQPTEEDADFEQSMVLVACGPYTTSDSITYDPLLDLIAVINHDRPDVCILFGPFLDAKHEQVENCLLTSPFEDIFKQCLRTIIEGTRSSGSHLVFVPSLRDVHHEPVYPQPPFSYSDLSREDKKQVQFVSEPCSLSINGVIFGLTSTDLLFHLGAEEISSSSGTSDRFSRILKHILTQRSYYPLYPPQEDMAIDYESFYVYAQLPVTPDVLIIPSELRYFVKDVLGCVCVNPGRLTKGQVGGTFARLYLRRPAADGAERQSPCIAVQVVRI
T3 sequence (P49642 whole entry, chain 3 of 3): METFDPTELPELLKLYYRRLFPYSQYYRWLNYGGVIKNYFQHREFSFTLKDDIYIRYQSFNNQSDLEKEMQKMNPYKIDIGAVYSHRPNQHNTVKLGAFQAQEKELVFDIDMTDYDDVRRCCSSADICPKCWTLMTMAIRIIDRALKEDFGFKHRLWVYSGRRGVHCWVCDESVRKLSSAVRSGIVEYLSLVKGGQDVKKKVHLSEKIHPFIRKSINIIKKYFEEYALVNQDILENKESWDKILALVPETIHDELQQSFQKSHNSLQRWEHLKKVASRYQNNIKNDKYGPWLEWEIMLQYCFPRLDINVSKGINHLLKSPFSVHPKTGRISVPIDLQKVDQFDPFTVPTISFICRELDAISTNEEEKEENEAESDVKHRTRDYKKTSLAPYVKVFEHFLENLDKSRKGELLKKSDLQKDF
T3 sequence (P49643 whole entry, chain 4 of 3): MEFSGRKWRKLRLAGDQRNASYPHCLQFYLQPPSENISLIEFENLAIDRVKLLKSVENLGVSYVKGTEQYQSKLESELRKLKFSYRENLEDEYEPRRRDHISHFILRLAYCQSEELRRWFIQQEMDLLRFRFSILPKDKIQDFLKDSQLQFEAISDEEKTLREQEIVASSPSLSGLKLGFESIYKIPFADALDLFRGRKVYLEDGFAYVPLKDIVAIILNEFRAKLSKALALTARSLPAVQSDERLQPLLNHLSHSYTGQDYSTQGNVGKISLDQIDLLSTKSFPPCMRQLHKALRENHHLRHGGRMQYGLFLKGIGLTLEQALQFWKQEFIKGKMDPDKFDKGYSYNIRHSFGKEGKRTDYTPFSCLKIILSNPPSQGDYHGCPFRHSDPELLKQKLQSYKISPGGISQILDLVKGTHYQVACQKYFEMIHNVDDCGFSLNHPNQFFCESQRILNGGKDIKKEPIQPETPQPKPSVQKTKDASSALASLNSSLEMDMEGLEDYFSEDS

T2 sequence (Q14181 149-598, chain 2 of 3): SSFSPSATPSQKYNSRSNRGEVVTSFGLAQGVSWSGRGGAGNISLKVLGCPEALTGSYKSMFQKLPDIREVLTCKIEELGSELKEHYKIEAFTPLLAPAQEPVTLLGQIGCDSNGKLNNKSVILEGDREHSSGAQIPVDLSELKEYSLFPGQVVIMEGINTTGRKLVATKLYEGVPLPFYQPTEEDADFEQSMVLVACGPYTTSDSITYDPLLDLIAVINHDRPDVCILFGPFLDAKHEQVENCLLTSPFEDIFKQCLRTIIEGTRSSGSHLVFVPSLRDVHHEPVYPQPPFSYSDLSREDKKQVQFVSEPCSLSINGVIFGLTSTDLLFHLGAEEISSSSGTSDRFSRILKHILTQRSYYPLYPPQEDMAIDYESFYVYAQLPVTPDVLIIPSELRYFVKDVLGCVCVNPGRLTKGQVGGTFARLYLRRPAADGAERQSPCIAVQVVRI
T2 sequence (P49642 whole entry, chain 3 of 3, the tested form may be a part): as the sequence (P49642 whole entry, chain 3 of 3) above
T2 sequence (P49643 whole entry, chain 4 of 3, the tested form may be a part): as the sequence (P49643 whole entry, chain 4 of 3) above

Row | Binder | binding result [1] | binding result [2] | binding result [3] | binding result [4]
1 | B1 | binds | binds |  | 
2 | B2 |  |  | binds | 
3 | B3 |  |  | binds | binds
4 | B4 |  |  | binds | 
